The EC50 is the concentration giving half of the maximal effect. A high value points to a need for much substance. The term Kd denotes the concentration at which binding is half-saturated. Lower therefore signals higher affinity.

The results in this text go back to patent US20110059095A1 (Regeneron, published 2011).

Where no end group is shown, it is not given here. The star is where a group is joined. Biotin = O=C1N[C@H]2[C@H](CS[C@H]2CCCCC(=O)*)N1

For test [1], the target named is T1, Peptide E (mouse PAR-2), N-terminal biotinylated (Mouse (Mus musculus), N-terminal biotin via G4S linker).
T1 construct: also called Peptide E N-Term
T1 peptide: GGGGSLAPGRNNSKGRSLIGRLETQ
Kind of test: peptide ELISA titration. A general note: In an ELISA, binding on a coated surface is turned into a signal by an enzyme label.

The target of test [2] is T2, Peptide G (rat PAR-2), unbiotinylated (Rat (Rattus norvegicus)).
T2 construct: also called Peptide G No Biotin
T2 peptide: GPNSKGRSLIGRLDTP
In words: peptide ELISA titration.

The target of test [3] is T3, Peptide G (rat PAR-2), N-terminal biotinylated (Rat (Rattus norvegicus), N-terminal biotin via G4S linker).
T3 construct: also called Peptide G N-Term
T3 peptide: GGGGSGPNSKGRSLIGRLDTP
Kind of test: peptide ELISA titration.

Test [4] has as its target T4, Peptide G (rat PAR-2), C-terminal biotinylated (Rat (Rattus norvegicus), C-terminal biotin via G4S linker).
T4 construct: also called Peptide G C-Term
T4 peptide: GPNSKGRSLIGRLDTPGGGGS
Kind of test: peptide ELISA titration.

Test [5] addresses T5, Peptide E (mouse PAR-2), unbiotinylated (Mouse (Mus musculus)).
T5 construct: also called Peptide E No Biotin
T5 peptide: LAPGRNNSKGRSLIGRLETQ
Kind of test: peptide ELISA titration; ELISA titration, bivalent IgG on peptide-coated plate. The method, then:
Anti-PAR-2 antibodies were tested for their ability to bind to the PAR-2 peptides. Various PAR-2 Peptides (Table 3) were coated onto 96-well plates at a concentration of 2 μg/ml and incubated overnight followed by blocking in a suitable blocking agent for one hour. […] Purified anti-PAR-2 antibodies were added to the plate coated with PAR-2 peptides to a final concentration ranging from 0.2 to 2.0 μg/ml and incubated for one hour at room temperature. Detection of bound antibodies was determined with Horse-Radish Peroxidase (HRP) conjugated anti-mouse or human IgG (Jackson Immuno Research Lab, West Grove, Pa.) and developed by standard colorimetric response using tetramethylbenzidine (TMB) substrate. Absorbance was read at OD₄₅₀ for 0.1 second.
In another experiment, selected anti-PAR-2 antibodies cloned onto human IgG4 were tested for binding to unbiotinylated and biotinylated forms of PAR-2 peptides (Peptides A, E, F and G; as described above). […] Absorbance values at 450 nm were analyzed using a sigmoidal dose-response model in GraphPad Prism (GraphPad Software, Inc., La Jolla, Calif.) and EC₅₀ values were reported (Table 9). EC₅₀ values are defined as the antibody concentration required to achieve 50% maximal binding to PAR-2 peptide.

The target in test [6] is T6, Peptide C (human PAR-2), N-terminal biotinylated (Human).
T6 construct: also called Peptide C N-Term
T6 peptide: Biotin-GGGGSSLIGKV
Kind of test: SPR, peptide immobilized.

Test [7] addresses T7, Peptide K (human PAR-1), unbiotinylated (Human).
T7 peptide: ATNATLDPRSFLLRNPND
In words: SPR, antibody captured. (In general: Surface plasmon resonance follows binding to a sensor surface in real time, without labels.)

In test [8] the target is T8, Peptide A (human PAR-2), unbiotinylated (Human).
T8 construct: also called Peptide A No Biotin
T8 peptide: GTNRSSKGRSLIGKVDGT
Kind of test: SPR, antibody captured.

For test [9], the target named is T9, Peptide L (human PAR-3), unbiotinylated (Human).
T9 peptide: DTNNLAKPTLPIKTFRGA
In words: SPR, antibody captured.

Test [10] addresses T10, Peptide M (human PAR-4), unbiotinylated (Human).
T10 peptide: ESGSTGGGDDSTPSILPAP
Kind of test: SPR, antibody captured.

For test [11], the target named is T1, Peptide E (mouse PAR-2), N-terminal …. In words: SPR, peptide immobilized.
Test [12] deals with T3, Peptide G (rat PAR-2), N-terminal …. Kind of test: SPR, peptide immobilized.
Test [13] has as its target T11, Peptide H (rabbit PAR-2) (Rabbit (Oryctolagus cuniculus)).
T11 peptide: GTNKTSKGRSLIGRNTGS
In words: SPR, antibody captured. The method, then: (§1) Equilibrium dissociation constants (KD values) for antigen binding to selected purified PAR-2 antibodies were determined by surface kinetics using a real-time surface plasmon resonance biosensor assay. Antibody was captured on either a rabbit anti-mouse IgG polyclonal antibody (GE Healthcare, Piscataway, N.J.) surface or a goat anti-human IgG polyclonal antibody (Jackson Immuno Research Lab, West Grove, Pa.) surface created through direct amine chemical coupling to a BIACORE™ CM5 sensor chip to form a captured antibody surface. […] Antigen-antibody binding and dissociation were monitored in real time at room temperature. Kinetic analysis was performed to calculate KD and half-life of antigen/antibody complex dissociation (Table 10). For those antibodies where no T_{1/2} value is shown, steady state analysis was used to calculate the KD value. NB: no binding observed under current experimental conditions. ND: not determined.

Test [14] concerns the target T2, Peptide G (rat PAR-2), unbiotinylated. Kind of test: SPR, antibody captured. The method, then: as §1
In test [15] the target is T12, Peptide I (dog PAR-2) (Dog (Canis familiaris)).
T12 peptide: GTNRTSKGRSLIGKTDSS
In words: SPR, antibody captured. Here is the method:
as §1

B1: H4H584P (antibody, human IgG4, V domains shown)
VH: QVQLVESGGGVVQPGRSLRLSCVASGFTFSRYGMHWVRQAPGKGLEWVVVISYDGINKYYADSVKGRFTISRDNSKNTVYLQMNSLRAEDTAVYYCAKGDFWSGYFDYWGQGTLVTVSS
VL: DIVMTQTPLSSPVTLGQPASISCRSSQSLVHSDGNTYLSWLHQRPGQPPRLLIYKISNRFSGVPDRFSGSGAGTDFTLQISRVEAEDVGIYYCMQATQFPTFGGGTKVEIK
notes: also called H1H584P variable regions
For B1, the EC50 was found to be 0.511 nM in [1]; 0.013 nM in test [2]; 0.012 nM in [3]; 0.015 nM in test [4]; 2.15 nM in [5]. Moreover, the binding result in [6], in test [7], in [9], in [10] and in [13] was “no binding” each time. The Kd in test [8] was 22 nM; in [11] it was more than 100 nM; in test [12], 1.39 nM; in test [14], 246 nM. In addition, the values for the T1/2 in [8], in test [12] and in [14] were 43.8 s, 15 min and 7.8 s, respectively.

B2: H4H579P (antibody, human IgG4, V domains shown)
VH: QVQLVESGGGVVQPGRSLRLSCVASGFTFSRYGMHWVRQAPGKGLEWLIVISYDGINKYYADSVKGRFTISRDNSKNTVYLQMNSLRAEDTGVYYCAKGDFWSGYFDYWGQGTLVTVSS
VL: DIVMTQTPLSSPVTLGQPASISCRSSQSLVHSDGNTYLSWLHQRPGQPPRLLIYKISNRFSGVPDRFSGSGAGTDFTLQISRVEAEDVGIYYCMQGTQFPTFGGGTKVEIK
notes: also called H1H579P variable regions
On to B2, for which the EC50 was 0.54 nM in test [1], 0.055 nM in [2], 0.059 nM in test [3] and 0.044 nM in test [4]. Moreover, the binding result in test [6], in test [7], in [9] and in [10] was “no binding” throughout. In addition, the Kd was 15 nM in [8]; 3.4 nM in test [11]; 1.16 nM in test [12]; 311 nM in test [15]; 134 nM in test [14]. In addition, the T1/2 in test [8] is 240 s; in [11], 1200 s; in test [12] it was 38 min; in test [15] it was 15.6 s; in test [14], 27 s.

B3: H4H585P (antibody, human IgG4, V domains shown)
VH: QVQLVESGGGVVQPGRSLRLSCVASGFTFSRYGMHWVRQAPGKGLEWLIVISYDGINKYYADSVKGRFTISRDNSKNTVYLQMNSLRAEDTAVYYCAKGDFWSGYFDYWGQGTLVTVSS
VL: DIVMTQTPLSSPVTLGQPASISCRSSQSLVHSDGNTYLSWLHQRPGQPPRLLIYKISNRFSGVPDRFSGSGAGTDFTLQISRVEAEDVGIYYCMQGTQFPTFGGGTKVEIK
notes: also called H1H585P variable regions
Turning to B3, the EC50 came to 0.189 nM in test [1], 0.018 nM in [2], 0.017 nM in test [3] and 0.021 nM in [4]. Moreover, the Kd is 8.78 nM in test [8]; more than 100 nM in test [11]; 1.36 nM in [12]; 372 nM in [15]; 162 nM in test [14]. The T1/2 was 222 s in [8], 35 min in test [12], 11.4 s in test [15] and 19.8 s in test [14].

B4: H4H581P (antibody, human IgG4, V domains shown)
VH: QVQLVESGGGVVQPGRSLRLSCVASGFTFSRYGIHWVRQAPGKGLEWVIVISYDGINKYYADSVKGRFTISRDNSKNTVYLQMNSLRAEDTAVYYCAKGDFWSGYFDYWGQGTLVTVSS
VL: DIVMTQTPLSSPVTLGQPASISCRSSQSLVHSDGNTYLSWLHQRPGQPPRLLIYKISNRFSGVPDRFSGSGAGTDFTLQISRVEAEDVGIYYCMQATQFPTFGGGTKVEIK
notes: also called mAb H4H581P; H1H581P variable regions
Take B4: the EC50 in test [1] stood at 0.032 nM; in test [2], 0.02 nM; in test [3] it was 0.019 nM; in test [4] it was 0.013 nM; in test [5], 0.029 nM. In addition, the Kd in test [6] was more than 100 nM; in test [8], 9.44 nM; in test [11], 1.13 nM; in test [12] it was 0.354 nM; in test [15] it was 143 nM; in test [14], 40.2 nM. For the same molecule, the T1/2 in test [8] is 84 s; in test [11], 1260 s; in test [12] it was 62 min; in [15], 4.2 s; in [14], 37.8 s. Besides, the binding result in [13] is listed as “no binding”.

B5: H4H588N (antibody, human IgG4, V domains shown)
VH: EVQLLESGGGLVQPGGSLRLSCAASGFTFSSYAMTWVRQAPGKGLYWVSAISGGRGSAYYADSVKGRFTISRDNSKNTLYLQMNSLRAEDTAVYYCAKEGDSGYDLAYWGRGTLVTVSS
VL: DIQMTQSPSSLSASVGDRVTITCRARQGISNNLAWLQQKPGKAPKSLIYAASSLQSGIPSKFSGSGSGTYFTLTISSLQPEDFATYYCQQYKSSPLTFGGGTKVEIK
notes: also called H2M588N variable regions
Regarding B5, the binding result in test [6], in [7], in test [9], in [10], in [15] and in test [13] was “no binding” throughout.

B6: H4H583P (antibody, human IgG4, V domains shown)
VH: QVQLVESGGGVVQPGMSLRLSCTASGFTFRRYGMHWVRQAPGKGLEWVAVIWYDGSNKYYADSVKGRFTITRDNSKNTLYLQMNSLRAEDTAIYFCASEITIGDWFDPRGQGTLVTVSS
VL: AIQMTQSPSSLSASVGDRVTITCRASQGIRNDLGWFQQKPGKVPKLLIYAASTLHSGVPSRFSGSGFGTDFTLTISSLQPEDFATYYCLQDFNYPLTFGGGTKVEIK
notes: also called H1H583P variable regions
With B6, the concentration for a half-maximal effect (EC50) in [1] amounted to 0.014 nM; in test [2], 0.012 nM; in [3], 0.015 nM; in [4], 0.63 nM; in [5], 0.019 nM. In addition, the binding result in test [6], in test [7], in test [9] and in test [10] was “no binding” throughout. Besides, the Kd in [8] stood at 37.1 nM; in [11], 1.68 nM; in test [12], 1.49 nM; in test [15], 320 nM; in test [13] it was 189 nM; in test [14], 530 nM. In addition, the T1/2 in [8] worked out at 22.2 s; in test [11], 660 s; in [12], 13 min; in [15], 9.6 s; in [13], 10.2 s; in test [14] it was 4.2 s.
